From US20190071490A1 (BETH ISRAEL DEACONESS MEDICAL CENTER, published 2019)
Ends that are not written are not given here.

What was measured:
[1] = biological target: T1, human α-CGRP 1-37 (WT) (human, C-terminal amide; N-terminal biotin when captured on the SA chip; 125I-labelled in the radioligand assay); experiment: Biacore, 37°C, Fab over CGRP on SA chip
T1 construct: also called α-human
T1 peptide: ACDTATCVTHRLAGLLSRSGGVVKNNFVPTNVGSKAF
Method in brief: (§1)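 Fab analyte flowed over N-biotinylated CGRP captured at low density on a streptavidin chip in HBS-EP (pH 7.4), 1-min injections at 100 μL/min, at least 10 min dissociation.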

[2] = biological target: T2, rat α-CGRP (1-37) (rat, C-terminal amide; N-terminal biotin when captured on the SA chip); experiment: Biacore, 37°C, Fab over CGRP on SA chip
T2 construct: also called rat α (1-37); α-rat
T2 peptide: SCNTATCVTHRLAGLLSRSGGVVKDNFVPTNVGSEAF
Method in brief: as §1

[3] = biological target: T3, human α-CGRP G33A (25-37) (human, not fully specified); experiment: Biacore, 37°C, G1 Fab titrated over N-biotinylated peptide on chip
T3 construct: the entry already carries G33A
T3 peptide: NNFVPTNVASKAF-NH2
Procedure: (§2) All Biacore assays were conducted in HBS-EP running buffer (10 mM HEPES pH 7.4, 150 mM NaCl, 3 mM EDTA, 0.005% v/v polysorbate P20). CGRP surfaces were prepared by diluting the N-biotinylated CGRP to a concentration of less than 0.001 mg/mL into HBS-EP buffer and injecting it across the SA sensor chip using variable contact times. […] Samples were typically injected for 1 minute at 100 μL/min and dissociation times of at least 10 minutes were allowed. […] An entire titration series (typically generated in duplicate) was fit globally to a 1:1 Langmuir binding model using the BIAevaluation program. This returned a unique pair of association and dissociation kinetic rate constants (respectively, kₒₙ and koff) for each binding interaction, whose ratio gave the equilibrium dissociation constant (KD=koff/kₒₙ).

[4] = biological target: T4, human α-CGRP 19-36 (human); experiment: Biacore competition: 50 nM G1 Fab with 10 µM peptide over human α-CGRP on chip
T4 construct: also called 19-36-COOH; peptide fragment 19-36
T4 peptide: SGGVVKNNFVPTNVGSKA-OH
From the text: (§3) Y axis represents percentage of binding blocked by the presence of the competing peptide compared with the binding in the absence of the competing peptide.
(§4) All these peptides are amidated at the C-terminus.

[5] = biological target: T5, Human amylin (1-37) (human, C-terminal amide); experiment: as above
T5 peptide: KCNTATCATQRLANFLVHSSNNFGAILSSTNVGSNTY
From the text: as §3, §4

[6] = biological target: T6, Human calcitonin (1-32) (human, C-terminal amide); experiment: as above
T6 peptide: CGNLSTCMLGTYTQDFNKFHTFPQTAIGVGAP
From the text: as §3, §4

[7] = biological target: T7, Human adrenomedullin (1-52) (human, C-terminal amide); experiment: as above
T7 peptide: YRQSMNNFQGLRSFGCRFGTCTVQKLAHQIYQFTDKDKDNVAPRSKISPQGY
From the text: as §3, §4

[8] = biological target: T8, human β-CGRP (1-37) (human, C-terminal amide; N-terminal biotin when captured on the SA chip); experiment: Biacore, 37°C, Fab over N-biotinylated CGRP on SA chip, 20-min dissociation
T8 construct: also called human β (1-37)
T8 peptide: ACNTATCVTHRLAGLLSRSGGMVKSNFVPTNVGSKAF
Procedure: as §2, with “Biacore assay for affinity determination. […] All” for “All”

[9] = biological target: T9, rat β-CGRP (1-37) (rat, C-terminal amide; N-terminal biotin when captured on the SA chip); experiment: as above
T9 construct: also called rat β (1-37)
T9 peptide: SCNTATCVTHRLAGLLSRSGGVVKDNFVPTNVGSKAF
Procedure: as §2, with “Biacore assay for affinity determination. […] All” for “All”

[10] = biological target: T10, human α-CGRP 1-13-COOH (human, ends and bridges not checked); experiment: Biacore competition: 50 nM G1 Fab with 10 µM peptide over human α-CGRP on chip
T10 peptide: ACDTATCVTHRLA-OH

[11] = biological target: T11, human α-CGRP 1-19-COOH (human, ends and bridges not checked); experiment: as above
T11 peptide: ACDTATCVTHRLAGLLSRS-OH

[12] = biological target: T1, human α-CGRP 1-37 (WT); experiment: Biacore, 37°C, Fab over N-biotinylated CGRP on SA chip, high-resolution two-part experiment
Procedure: as §2, with “Biacore assay for affinity determination. […] All” for “All”
(§5) High-resolution analysis of binding interactions with extremely slow off rates. […] The protocol described above was used with the following modifications.

[13] = biological target: T2, rat α-CGRP (1-37); experiment: as above
Procedure: as §2, with “Biacore assay for affinity determination. […] All” for “All”
as §5

Kd [1]: 0.063 nM
Kd [2]: 2.57 nM
Kd [3]: 141 nM
binding result [4]: no binding (tested: 10 µM peptide)
binding result [5]: no binding (tested: 10 µM peptide)
binding result [6]: no binding (tested: 10 µM peptide)
binding result [7]: no binding (tested: 10 µM peptide)
Kd [8]: 0.155 nM
Kd [9]: 0.152 nM
binding result [10]: no binding (tested: 10 µM peptide)
binding result [11]: no binding (tested: 10 µM peptide)
Kd [12]: 0.063 nM
Kd [13]: 2.57 nM
B1: antibody G1 Fab fragment (Fab, V domains shown)
VH: EVQLVESGGGLVQPGGSLRLSCAASGFTFSNYWISWVRQAPGKGLEWVAEIRSESDASATHYAEAVKGRFTISRDNAKNSLYLQMNSLRAEDTAVYYCLAYFDYGLAIQNYWGQGTLVTVSS
VL: EIVLTQSPATLSLSPGERATLSCKASKRVTTYVSWYQQKPGQAPRLLIYGASNRYLGIPARFSGSGSGTDFTLTISSLEPEDFAVYYCSQSYNYPYTFGQGTKLEIK
